The chains are these.
T1: PKD1 on the ProtoArray Human Protein Microarray (human, UniProt Q15139 1-912)
T1 construct: protein kinase D1 (PKD1) as spotted on the human protein microarray; construct not described; Proteins on this commercial array may carry a carrier tag; also called protein kinase D1; source: spotted on ProtoArray Human Protein Microarray (Invitrogen)
T1 sequence (looked up): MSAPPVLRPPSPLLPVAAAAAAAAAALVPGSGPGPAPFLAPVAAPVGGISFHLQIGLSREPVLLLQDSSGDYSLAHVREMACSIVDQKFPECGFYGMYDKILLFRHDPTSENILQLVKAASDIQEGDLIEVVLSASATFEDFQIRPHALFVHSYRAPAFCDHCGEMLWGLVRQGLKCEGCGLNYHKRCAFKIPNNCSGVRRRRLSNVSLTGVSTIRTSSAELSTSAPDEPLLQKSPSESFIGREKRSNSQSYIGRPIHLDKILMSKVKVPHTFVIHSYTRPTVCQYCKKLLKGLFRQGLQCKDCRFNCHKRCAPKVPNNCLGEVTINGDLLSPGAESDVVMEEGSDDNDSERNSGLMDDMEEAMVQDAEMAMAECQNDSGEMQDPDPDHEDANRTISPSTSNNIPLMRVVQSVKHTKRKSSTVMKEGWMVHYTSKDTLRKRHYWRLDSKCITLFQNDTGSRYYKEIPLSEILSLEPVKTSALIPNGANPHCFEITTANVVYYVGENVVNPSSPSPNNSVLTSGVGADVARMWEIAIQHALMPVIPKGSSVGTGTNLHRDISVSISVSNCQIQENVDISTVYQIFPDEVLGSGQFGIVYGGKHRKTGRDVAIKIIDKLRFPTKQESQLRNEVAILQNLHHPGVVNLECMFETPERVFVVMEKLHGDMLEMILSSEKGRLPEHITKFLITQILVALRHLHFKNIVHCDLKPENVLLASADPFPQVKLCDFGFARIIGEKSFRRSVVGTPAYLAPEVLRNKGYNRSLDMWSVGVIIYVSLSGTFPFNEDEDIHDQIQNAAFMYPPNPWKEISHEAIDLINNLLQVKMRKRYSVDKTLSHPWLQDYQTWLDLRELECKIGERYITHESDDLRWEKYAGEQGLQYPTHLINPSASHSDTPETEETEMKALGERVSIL

B1: His-tagged HSP20 protein (natural protein, UniProt O14558 1-160, looked up)
chain: MEIPVPVQPSWLRRASAPLPGLSAPGRLFDQRFGEGLLEAELAALCPTTLAPYYLRAPSVALPVAQVPTDPGHFSVLLDVKHFSPEEIAVKVVGEHVEVHARHEERPDEHGFVAREFHRRYRLPPGVDPAAVTSALSPEGVLSIQAAPASAQAPPPAAAK
notes: HSP20 (heat shock protein 20), open reading frame from Ultimate ORF clone IOH57317 in pENTR221, moved into pDEST-17 by Gateway cloning; also called His-HSP20; His-Hsp20; source: E. coli, purified (Ni-NTA Superflow resin); not shown: His, N-terminal, kept
B2: PKD1 25mer peptide spanning residues 606 to 630 (peptide array spot) (peptide)
peptide: GRDVAIKIIDKLRFPTKQESQLRNE
notes: also called G606-E630; source: SPOT-synthesised peptide on array

Assay [1] has as its target T1, PKD1 on the ProtoArray Human Protein …. As to the kind of experiment: peptide or protein array; ProtoArray Human Protein Microarray probed with 10 uM (200 ug/ml) His-HSP20 in 1xPBS, 5 mM MgCl2, 0.5 mM DTT, 0.05% Triton X-100, 5% glycerol, 1% BSA for 1.5 h at 4 C; detected with anti-His and Alexa Fluor 647 secondary antibody; control array in parallel. Particulars: both partners purified.

The target of the assay “His-tagged HSP20 protein” is B1. As to the kind of experiment: peptide or protein array; sequence of PKD1 spotted as 25mer peptides each shifted by five amino acids, and alanine scanning array of the 606-630 peptide, overlaid with Hsp20; methods in ref. 31. Particulars: both partners purified.

As for B1, the binding result in assay [1] is listed as “binds”. Regarding B2, the binding result with His-tagged HSP20 protein is given as “binds”.
